The chains are these.
B2: SNAP23 (full-length, purified) (natural protein, UniProt O00161 1-211, looked up)
chain: MDNLSSEEIQQRAHQITDESLESTRRILGLAIESQDAGIKTITMLDEQKEQLNRIEEGLDQINKDMRETEKTLTELNKCCGLCVCPCNRTKNFESGKAYKTTWGDGGENSPCNVVSKQPGPVTNGQLQQPTTGAASGGYIKRITNDAREDEMEENLTQVGSILGNLKDMALNIGNEIDAQNPQIKRITDKADTNRDRIDIANARAKKLIDS
notes: SNAP23, full length, in pGEX with N-terminal GST and a TEV site after it; The uncleaved form is called GST-Flag-SNAP23 in the pull-down methods; if a FLAG follows the TEV site it would remain here; also called purified SNAP23; source: E. coli BL21 (DE3), purified (Glutathione Sepharose 4B, TEV on beads); not shown: GST, N-terminal, cleaved
B5: SEC22B (full-length, purified) (natural protein, UniProt O75396 1-215, looked up)
chain: MVLLTMIARVADGLPLAASMQEDEQSGRDLQQYQSQAKQLFRKLNEQSPTRCTLEAGAMTFHYIIEQGVCYLVLCEAAFPKKLAFAYLEDLHSEFDEQHGKKVPTVSRPYSFIEFDTFIQKTKKLYIDSRARRNLGSINTELQDVQRIMVANIEEVLQRGEALSALDSKANNLSSLSKKYRQDAKYLNMRSTYAKLAAVAVFFIMLIVYVRFWWL
notes: SEC22B, full length, in pGEX with N-terminal GST and a TEV site after it; C-terminus printed as 212-FWWL-215; The uncleaved form is called GST-Flag-SEC22B in the pull-down methods; if a FLAG follows the TEV site it would remain here; also called purified SEC22B; source: E. coli BL21 (C43), purified (Glutathione Sepharose 4B, TEV on beads); not shown: GST, N-terminal, cleaved

Common to all, as to details: both partners purified
Test [1] concerns the target B2. Briefly: SEC; individually purified SNAP23, STX18-SNARE and SEC22B-SNARE, alone or as an in vitro incubated mixture of the three, on Superdex75 10/300 GL; SDS-PAGE of fractions.
For test [2], the target named is T1, GST-Flag-STX18 (full-length) (UniProt Q9P2W9 1-335).
T1 construct: syntaxin 18 (STX18), full length, in pGEX-4T-1 with GST-TEV-3xFLAG at the N-terminus; C-terminus printed as 331-DWYDS-335; The methods describe only the TEV-cleaved preparation; also called GST-STX18; GST-Flag-tagged STX18; source: E. coli BL21 (C43), purified (Glutathione Sepharose 4B); not shown: GST, N-terminal, kept; 3xFLAG, N-terminal, kept
T1 sequence (looked up): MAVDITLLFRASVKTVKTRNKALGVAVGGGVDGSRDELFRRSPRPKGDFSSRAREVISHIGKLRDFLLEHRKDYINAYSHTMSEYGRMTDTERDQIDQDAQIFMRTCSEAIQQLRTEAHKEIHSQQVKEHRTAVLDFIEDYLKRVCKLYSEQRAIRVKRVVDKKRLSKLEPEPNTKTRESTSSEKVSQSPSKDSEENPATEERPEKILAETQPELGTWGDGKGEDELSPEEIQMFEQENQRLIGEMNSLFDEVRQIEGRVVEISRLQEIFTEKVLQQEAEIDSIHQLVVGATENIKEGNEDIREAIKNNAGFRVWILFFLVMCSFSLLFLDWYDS
The test can be described thus: pull-down; GST-Flag-tagged bait on GST agarose beads, 4 °C 1 h; 20 mM HEPES pH 7.4, 300 mM NaCl, 1 mM EDTA, 1% OG, 0.1% FOS-Choline-12; purified SEC22B (54.7 μM, 20 μL) or SNAP23 (280 μM, 5 μL) added; immunoblot and Coomassie. (In general: Immunoblotting shows a protein as a band on a membrane.)

Test [3] addresses B5. Described as above.

B1: STX18-SNARE (243-305), individually purified (domain or fragment, UniProt Q9P2W9 243-305, looked up)
chain: IGEMNSLFDEVRQIEGRVVEISRLQEIFTEKVLQQEAEIDSIHQLVVGATENIKEGNEDIREA
notes: syntaxin 18 (STX18), SNARE domain, residues 243-305, in pGEX-4T-1 with GST-TEV-FLAG at the N-terminus; The TEV site lies between GST and FLAG, so the FLAG tag should remain after cleavage (surmised); source: E. coli BL21 (DE3), purified (Glutathione Sepharose 4B, TEV on beads, Superdex 75); not shown: GST, N-terminal, cleaved
Consider B1, for which, in test [1], the binding result is “binds”.
Take B2: the binding result in test [2] was “binds”.

B3: GST-Flag-SNAP23 (natural protein, UniProt O00161 1-211, looked up)
chain: MDNLSSEEIQQRAHQITDESLESTRRILGLAIESQDAGIKTITMLDEQKEQLNRIEEGLDQINKDMRETEKTLTELNKCCGLCVCPCNRTKNFESGKAYKTTWGDGGENSPCNVVSKQPGPVTNGQLQQPTTGAASGGYIKRITNDAREDEMEENLTQVGSILGNLKDMALNIGNEIDAQNPQIKRITDKADTNRDRIDIANARAKKLIDS
notes: SNAP23, full length, in pGEX with N-terminal GST and a TEV site after it; The cloning paragraph names no FLAG tag for this construct; the pull-down methods and legends call it GST-Flag-SNAP23; also called GST-SNAP23; GST-Flag-tagged SNAP23; source: E. coli BL21 (DE3), purified (Glutathione Sepharose 4B); not shown: GST, N-terminal, kept
As for B3, the binding result in test [3] is listed as “binds”.

B4: SEC22B-SNARE (134-194), individually purified (domain or fragment, UniProt O75396 134-194, looked up)
chain: NLGSINTELQDVQRIMVANIEEVLQRGEALSALDSKANNLSSLSKKYRQDAKYLNMRSTYA
notes: SEC22B, SNARE domain, residues 134-194, in pET28 with 6xHis at the N-terminus
Regarding B4, the binding result in test [1] was “binds”.
On to B5, for which the binding result in test [2] was “binds”.
